Experiment [1] concerns the target T1, purified human fibrinogen (Homo sapiens, UniProt P02675+P02679).
T1 sequence (P02679 27-437 isoform P02679-2 limits assumed): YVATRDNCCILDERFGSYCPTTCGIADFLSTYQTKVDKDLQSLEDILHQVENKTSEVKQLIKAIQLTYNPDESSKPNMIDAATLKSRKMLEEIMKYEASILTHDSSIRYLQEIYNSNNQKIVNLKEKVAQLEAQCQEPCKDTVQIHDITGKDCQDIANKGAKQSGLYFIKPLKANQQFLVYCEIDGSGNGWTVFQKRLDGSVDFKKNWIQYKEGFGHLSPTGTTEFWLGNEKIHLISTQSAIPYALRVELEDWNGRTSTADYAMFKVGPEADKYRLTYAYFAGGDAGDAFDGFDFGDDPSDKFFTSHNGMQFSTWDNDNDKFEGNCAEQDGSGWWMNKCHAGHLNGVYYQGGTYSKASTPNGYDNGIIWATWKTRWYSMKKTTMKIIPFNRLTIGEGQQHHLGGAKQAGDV
T1 sequence (P02675 31-491): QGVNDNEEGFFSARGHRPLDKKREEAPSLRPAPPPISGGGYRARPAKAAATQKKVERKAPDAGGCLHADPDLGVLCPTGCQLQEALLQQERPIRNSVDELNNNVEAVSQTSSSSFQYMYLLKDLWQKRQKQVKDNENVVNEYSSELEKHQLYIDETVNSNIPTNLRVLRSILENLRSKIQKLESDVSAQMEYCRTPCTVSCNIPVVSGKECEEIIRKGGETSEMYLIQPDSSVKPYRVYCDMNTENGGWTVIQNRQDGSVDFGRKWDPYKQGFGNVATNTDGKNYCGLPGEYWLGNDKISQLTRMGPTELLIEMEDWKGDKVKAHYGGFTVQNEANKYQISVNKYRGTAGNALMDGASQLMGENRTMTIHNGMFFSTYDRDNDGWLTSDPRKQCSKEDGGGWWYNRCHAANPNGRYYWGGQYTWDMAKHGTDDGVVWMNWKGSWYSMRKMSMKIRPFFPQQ
T1 sequence (P02671 20-629 partner limits assumed): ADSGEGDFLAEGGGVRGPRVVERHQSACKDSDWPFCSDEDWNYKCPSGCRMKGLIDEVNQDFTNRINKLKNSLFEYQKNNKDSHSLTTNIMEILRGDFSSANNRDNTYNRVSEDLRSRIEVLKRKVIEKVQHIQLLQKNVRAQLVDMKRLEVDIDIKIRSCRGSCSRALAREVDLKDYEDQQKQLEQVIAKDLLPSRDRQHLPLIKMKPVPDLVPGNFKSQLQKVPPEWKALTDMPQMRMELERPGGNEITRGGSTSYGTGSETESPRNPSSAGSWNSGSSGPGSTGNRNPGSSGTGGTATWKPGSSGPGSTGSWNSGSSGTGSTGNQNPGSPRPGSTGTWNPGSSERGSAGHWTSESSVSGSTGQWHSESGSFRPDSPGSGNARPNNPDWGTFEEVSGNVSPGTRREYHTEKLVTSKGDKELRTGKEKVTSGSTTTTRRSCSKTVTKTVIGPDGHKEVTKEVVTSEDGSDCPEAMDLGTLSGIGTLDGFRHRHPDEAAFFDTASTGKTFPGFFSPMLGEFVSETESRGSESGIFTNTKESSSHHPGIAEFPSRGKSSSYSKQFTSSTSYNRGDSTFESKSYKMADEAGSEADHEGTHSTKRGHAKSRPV
Kind of experiment: Copolymerisation of peptide dendrimers with purified human fibrinogen, clotting time on KC4 Delta coagulation analyser. The format is biochemical. The settings on record: for activity of mixtures of peptide conjugate and peptide dendrimer in copolymerising with fibrinogen: conjugate 2 mg/ml mixed with Peptide Dendrimer No. 3 or 4 at 0.025-0.5 mg/ml. How it is done: The ability of Peptide Dendrimer No. 12 to polymerise fibrinogen was assessed. 30 μl of dendrimer in solution, at concentration ranging from 0.005-2 mg/ml, was added to 100 μl purified human fibrinogen at 3 mg/ml (the level of fibrinogen found in the blood). Polymerisation of fibrinogen was analysed using a Sigma Amelung KC4 Delta coagulation analyser.
The ability of Peptide Dendrimer Nos. 4, 5, 10, 11, and 12 to copolymerise with fibrinogen was assessed using the same method described in Example 2. The concentration of each dendrimer was varied from 0.005-0.5 mg/ml.
The ability of the dendrimers to copolymerise with fibrinogen was assessed using the same method described in Example 2, for a concentration of each dendrimer ranging from 0.005-0.5 mg/ml.
Peptide Conjugate No. 1 or 2 (2 mg/ml) was mixed with Peptide Dendrimer No. 3 or 4, and fibrinogen, and the ability of the mixtures to copolymerise with fibrinogen was assessed using the same method described in Example 2, for a concentration of each dendrimer ranging from 0.025-0.5 mg/ml.

In experiment [2] the target is T2, fibrinogen in human plasma (Homo sapiens, UniProt P02675+P02679).
T2 construct: from tissue; host or cells: human plasma
T2 sequence (P02679 27-437 isoform P02679-2 limits assumed): T1 sequence (P02679 27-437 isoform P02679-2 limits assumed)
T2 sequence (P02675 31-491): T1 sequence (P02675 31-491)
T2 sequence (P02671 20-629 partner limits assumed): T1 sequence (P02671 20-629 partner limits assumed)
Kind of experiment: Polymerisation of fibrinogen in human plasma by peptide dendrimers. The format is biochemical. The settings on record: 30 μL dendrimer 0.25 mg/ml in 100 μL human plasma, 37° C. Here is the method:
30 μL of each dendrimer (at a concentration of 0.25 mg/ml) was added to 100 μL human plasma at 37° C., and polymerisation of fibrinogen was determined using a Sigma Amelung KC4 Delta coagulation analyzer.

Experimental findings from patent US11246958B2, “Haemostatic compositions” (HAEMOSTATIX LIMITED, priority 2015, dated 2022) are described below.

Where no end group is shown, it is not given here.

Turning to “Peptide Dendrimer No. 9: three-branch dendrimer, two GPRPFPA peptides and one APFPRPG attached by its amino-terminal end, carboxy-terminal amide (chain 2 APFPRPG-NH2; not fully specified; also: three-branch dendrimer: two GPRPFPA and one APFPRPG attached by amino-terminal end; listed as Homo sapiens)”, in experiment [1] (dendrimer 0.005-0.5 mg/ml, fibrinogen 3 mg/ml), the “ability to copolymerise with fibrinogen” value is “very active in copolymerising with fibrinogen”. Further, the “ability to polymerise fibrinogen in human plasma” value in experiment [2] is on record as “not able to polymerise fibrinogen in human plasma”.
With “Peptide Conjugate No. 1: two GPRP fibrinogen-binding peptides each attached by a linker to a lysine residue, second attached by amino-terminal end and amidated (peptide 2 GPRP-NH2; also: each GPRP attached by a linker to a lysine residue, second attached by amino-terminal end)”, the “activity of mixtures of peptide conjugate and peptide dendrimer in copolymerising with fibrinogen” value in experiment [1] is reported as “not active”.
On the same count and under the same terms, under “Peptide Conjugate No. 2: GHRPY peptide and reverse sequence YPRHG (amidated), each attached by a linker to a lysine residue (peptide 2 YPRHG-NH2; also: each peptide attached by a linker to a lysine residue)” stands “synergistic and increased activity”.
